We go through five molecules from patent publication US20230123178A1 (Hoffmann-La Roche, published 2023).

In assay [1] the target is T1, full-length human PD1 on cells (human, UniProt Q15116 25-288). Briefly: cell-based or functional assay.
For assay [2], the target named is T1, full-length human PD1 on cells. Briefly: flow cytometry, freshly isolated resting human PBMCs (table title), CD4 T cells. The protocol: (§1) For the binding assay 0.1×10⁶ fresh or activated PBMCs were added to each well of a round-bottom suspension cell 96-well plates (greiner bio-one, cellstar, Cat. No. 650185). Plates were centrifuged 5 minutes with 350×g and at 4° C. and supernatant were discarded. Afterwards cells were stained in 100 μL/well DPBS containing 1:5000 diluted fixable viability dye eF660 (eBioscience, Cat.-No. 65-0864-18) for 30 minutes at 4° C. in the dark. Cells were washed once with 200 μL ice cold cold DPBS buffer. Next, 50 μL/well of 4° C. cold FACS buffer (DPBS supplied with 2% FBS, 5 mM EDTA pH8 (Amresco, Cat. No. E177) and 7.5 mM Sodium azide (Sigma-Aldrich, Cat.-No. S2002)) containing titrated concentrations of construct 7.1, construct 7.3, construct 7.5 and construct 7.6 and as controls control B, control C, control D, control M and control F were added and cells were incubated for 60 minutes at 4° C., washed three times with 200 μL/well 4° C. FACS buffer. […] Data was analyzed using FlowJo V10 (FlowJo, LLC) and GraphPad Prism 6.04 (GraphPad Software, Inc)
For orientation: A flow cytometer gives signals particle by particle.

The target is the same in assay [3]. The experiment in a line: flow cytometry on CHO-K1-huPD1 clone 5 cells. An excerpt:
For binding assays on PD1 and 4-1BB expressing tumor cells two genetically modified tumor cells were used. The generation of human expressing HeLa-hu4-1BB-NFκB-luc clone 26 cells will be described in Example 5.3.1. For human PD1 expressing tumor cell lines, CHO-k1 cells were transfected with human PD1 as following: parental adherent CHO-K1 cell line (ATCC CCL-61) was stably transfected with plasmid 15311_hPD1-fl_pUC_Neo coding for full-length human PD1 and selection with G418 (Neomycin resistance marker on plasmid).
0.1×10⁶ tumor cells resuspended in DPBS (Gibco by Life Technologies, Cat. No. 14190 326) were added to each well of a round-bottom suspension cell 96-well plates (greiner bio-one, cellstar, Cat. No. 650185). Cells were washed once with 200 μL DPBS. Cells were resuspended in 100 μL/well of 4° C. cold DPBS buffer containing 1:5000 diluted Fixable Viability Dye eFluor 660 (eBioscience, Cat. No. 65-0864-18) and plates were incubated for 30 minutes at 4° C. […] Data was analyzed using FlowJo V10 (FlowJo, LLC) and GraphPad Prism 6.04 (GraphPad Software, Inc).
(§2) Gates were set on living tumor cells and geo means of fluorescence intensity of PE-conjugated AffiniPure anti-human IgG IgG Fcγ-fragment-specific goat F(ab′)2 fragment were blotted against the titrated concentration of PD1-targeted 4-1BB split trimeric ligand Fc fusion antigen binding molecules or their controls.

The target is the same in assay [4]. Briefly: flow cytometry, activated human PBMCs, CD4 T cells. How it is done:
(§3) Cells were further incubated for 2 days at 37° C. and 5% CO₂
as §1

Assay [5] has the same target. The experiment in a line: flow cytometry, activated human PBMCs, CD8 T cells. How it is done: as §3, §1
For assay [6] the target is unchanged. Briefly: flow cytometry, activated human PBMCs, CD19 cells. The protocol: as §3, §1
For assay [7] the target is unchanged. Briefly: flow cytometry, activated human PBMCs, γδ T cells. How it is done:
as §3, §1

The target in assay [8] is T2, human 4-1BB on cells (human, UniProt Q07011 24-255).
T2 construct: whole, on cells; also called HeLa-hu4-1BB-NFkB-luc clone 26; HeLa-huCD137-NFkB-luc clone 26 cells
Briefly: flow cytometry on HeLa-huCD137-NFkB-luc clone 26 cells; PE-conjugated anti-human IgG secondary; geo mean. How it is done: Cells were washed once with 200 μL DPBS. Cells were resuspended in 100 μL/well of 4° C. cold DPBS buffer containing 1:5000 diluted Fixable Viability Dye eFluor 660 (eBioscience, Cat. No. 65-0864-18) and plates were incubated for 30 minutes at 4° C. Cells were washed once with 200 μL/well 4° C. cold DPBS buffer and resuspended in 50 μL/well of 4° C. cold FACS buffer (DPBS supplied with 2% FBS, 5 mM EDTA pH8 (Amresco, Cat. No. E177) and 7.5 mM Sodium azide (Sigma-Aldrich S2002)) containing PD1-targeted 4-1BB split trimeric ligand Fc fusion antigen binding molecules at a series of concentrations, followed by incubation for 1 hour at 4° C. After extensive washing, cells were further stained with 50 μL/well of 4° C. cold FACS buffer containing 5 μg/mL PE-conjugated AffiniPure anti-human IgG F(ab′)2-fragment-specific goat F(ab′)2 fragment (Jackson ImmunoResearch, Cat. No. 109 116 098) for 30 minutes at 4° C. Cells were washed twice with 200 μL/well 4° C. […] Data was analyzed using FlowJo V10 (FlowJo, LLC) and GraphPad Prism 6.04 (GraphPad Software, Inc).
as §2

Assay [9] has as its target T1, full-length human PD1 on cells. Briefly: flow cytometry, freshly isolated resting human PBMCs (table title), γδ T cells. The protocol:
as §1

T1 sequence (Q15116 25-288 limits assumed): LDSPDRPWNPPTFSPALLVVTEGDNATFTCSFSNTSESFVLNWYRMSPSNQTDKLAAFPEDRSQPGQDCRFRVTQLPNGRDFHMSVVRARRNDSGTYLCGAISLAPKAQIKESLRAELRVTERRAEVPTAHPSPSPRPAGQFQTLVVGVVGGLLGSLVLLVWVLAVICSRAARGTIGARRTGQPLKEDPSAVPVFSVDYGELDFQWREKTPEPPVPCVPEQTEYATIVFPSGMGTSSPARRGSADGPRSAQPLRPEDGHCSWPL
T2 sequence (Q07011 24-255): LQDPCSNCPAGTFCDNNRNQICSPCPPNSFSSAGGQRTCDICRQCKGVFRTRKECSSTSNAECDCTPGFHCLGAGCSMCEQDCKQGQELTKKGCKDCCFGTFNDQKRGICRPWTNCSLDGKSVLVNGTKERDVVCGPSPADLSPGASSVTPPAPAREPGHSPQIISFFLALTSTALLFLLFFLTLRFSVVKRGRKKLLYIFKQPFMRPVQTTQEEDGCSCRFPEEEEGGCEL

B1: PD1-0069 (antibody, V domains shown)
VH: QVQLQQSGPELVRPGVSVKISCKGSGYTFTDYAMHWVKQSHARTLEWIGVISTYSGDTNYNQKFKDKATMTVDKSSSTAYLELARMTSEDSAIYYCARLGITTGFAYWGQGTLVTVSA
VL: DIVLTQSPASLAVSLGQRATISCRASKGVSTSSYSFMHWYQQKPRQPPKLLIKYASYLESGVPARFSGSGSGTDFTLNIHPVEEEDAATYYCHHSREFPWTFGGGTKLEIK
Turning to B1, in assay [1], the “Percentage of IFN gamma secretion in MLR against rec hu IL-2 (=100%), dilution 1:12” value was found to be 76%; the “Percentage of IFN gamma secretion in MLR against rec hu IL-2 (=100%), dilution 1:120” value was 71%; the “Percentage of IFN gamma secretion in MLR against rec hu IL-2 (=100%), dilution 1:1200” value (“Percentage … (=100%), dilution 1:1200” for short) was determined as 55%.

B2: PD1-0050 (antibody, V domains shown)
VH: DVQLQESGPGLVKPSQSLSLTCTVTGYSITSDYAWNWIRQFPGNKLEWMGYITYTGRTSYNPSLKSRISITRDTSKNQFFLQLNSVTTEDTATYYCAREMDYYGSTLDYWGQGTTLTVSS
VL: KIVLTQSPASLAVSLRQRATISCRASESVDRYGNSFIHWYQQKPGQPPKVLIYRASNLESGFPARFSGSGSRTDFTLTIDPVEADDAATYYCQQNNEDPYTFGSGTKLEIK
With B2, in assay [1], the “Percentage of IFN gamma secretion in MLR against rec hu IL-2 (=100%), dilution 1:12” value was 136%; the “Percentage of IFN gamma secretion in MLR against rec hu IL-2 (=100%), dilution 1:120” value turned out to be 96%; the “Percentage … (=100%), dilution 1:1200” value turned out to be 33%.

B3: PD1-0078 (antibody, V domains shown)
VH: QVQLQQPGAELVKPGASVKMSCKASGYTFTSTWMHWVKQRPGQGLEWIGAIDPSDSYTTYNQKFKGKATLTVDTSSTTAYMQLSSLTSEDSAVYYCTRSPFDYWGQGTTLTVSS
VL: DIVMTQSHKFMSTSVGDRVSITCKASQDVSTAVAWYQQKPGQSPKLLIYSASYRYTGVPDRFTGSGSGTDFTFAISSVQAEDLAVYYCQQHYSHPFTFGSGTKLEIK
Consider B3, for which, in assay [1], the “Percentage of IFN gamma secretion in MLR against rec hu IL-2 (=100%), dilution 1:12” value stood at 99%; the “Percentage of IFN gamma secretion in MLR against rec hu IL-2 (=100%), dilution 1:120” value worked out at 72%; the “Percentage … (=100%), dilution 1:1200” value stood at 21%.

B4: PD1-0073 (antibody, V domains shown)
VH: EVKLVESGGGLVKPGGSLKLSCAASGFTFSNYGMSWIRQTPEKGLEWVATISGGGRDTYYPDSVKGRFTISRDNVKNNLYLQMSSLRSEDTAFYYCASYYYGIDYWGQGTSVTVSS
VL: DIVMTQPHKFMSTSVGDRVRITCKASQDVTTAVAWYQQKPGQSPKLLIYWASTRHTGVPDRFTGSGSGTEFTLTISSVQAEDLALYYCQQHYSIPWTFGGGTKLEIK
Turning to B4, in assay [1], the “Percentage of IFN gamma secretion in MLR against rec hu IL-2 (=100%), dilution 1:12” value stood at 103%; the “Percentage of IFN gamma secretion in MLR against rec hu IL-2 (=100%), dilution 1:120” value worked out at 63%; the “Percentage … (=100%), dilution 1:1200” value is 38%.

B5: anti-PD1(0314) huIgG1 PGLALA (control M) (antibody, V domains shown)
VH: EVQLLESGGGLVQPGGSLRLSCAASGFSFSSYTMSWVRQAPGKGLEWVATISGGGRDIYYPDSVKGRFTISRDNSKNTLYLQMNSLRAEDTAVYYCVLLTGRVYFALDSWGQGTLVTVSS
VL: EIVLTQSPATLSLSPGERATLSCRASESVDTSDNSFIHWYQQKPGQSPRLLIYRSSTLESGIPARFSGSGSGTDFTLTISSLEPEDFAVYYCQQNYDVPWTFGQGTKVEIKR
notes: monospecific IgG1 of clone 0314; also called PD1 targeted human IgG control M
A word on the EC50: it is the concentration giving half of the maximal effect. A low value points to higher potency in that assay. On to B5, for which the EC50 stood at 0.03 nM in [2]; 1.59 nM in assay [3]; 0.33 nM in assay [4]; 0.3 nM in [5]; 0.33 nM in [6]; 0.71 nM in assay [7]. The EC50 in assay [9] stood at 0.03 nM. In assay [8], the binding result is “no binding (tested: ~300 nM)”.
